Assay results: paper doi:10.1101/2024.03.26.586665 (bioRxiv, 2024)

Experiments:
[1] = biological target: human CaMKIIα W403L hub (human) (UniProt Q9UQM7); assay: mass photometry
mass photometry = biological target: the molecule itself; assay: mass photometry
SAXS = biological target: the molecule itself; assay: SAXS

stoichiometry N [1]	Molecule	stoichiometry N (mass photometry)	stoichiometry N (SAXS)
12	human CaMKIIα W403L hub (from UniProt Q9UQM7 345-475) (domain or fragment)	–	–
–	human CaMKIIα WT hub (calcium/calmodulin-dependent protein kinase II subtype alpha, hub domain) (domain or fragment, UniProt Q9UQM7 345-475, looked up) VRKQEIIKVTEQLIEAISNGDFESYTKMCDPGMTAFEPEALGNLVEGLDFHRFYFENLWSRNSKPVHTTILNPHIHLMGDESACIAYIRITQYLDAGGIPRTAQSEETRVWHRRDGKWQIVHFHRSGAPSV	24	12
